Four molecules from patent EP4755403A1 (Jiangsu Hengrui Pharmaceuticals Co., Ltd., dated 2025) can be followed below.

The target of experiment [1] is T1, human PSMA (prostate specific membrane antigen) on tumor cells (human, UniProt Q04609 1-750). The experiment in a line: cell-based or functional assay.
Experiment [2] addresses T1, human PSMA (prostate specific membrane …). Description: flow cytometry on LNCaP cells, FITC anti-human IgG secondary.
For experiment [3] the target is unchanged. Description: flow cytometry on 22RV1 cells, FITC anti-human IgG secondary. (In general: Flow cytometry measures light scatter and fluorescence of single cells or particles in a stream.)
The target is the same in experiment [4]. Description: flow cytometry on LNCaP cells, FITC anti-human IgG secondary. This is another data set of the same source.
For experiment [5] the target is unchanged. The experiment in a line: flow cytometry on 22RV1 cells, FITC anti-human IgG secondary. This is another data set of the same source.
For experiment [6], the target named is T2, mouse PSMA-His (ACRO, PSA-M5245) (mouse, UniProt O35409 45-752).
T2 construct: Commercial protein; not shown: His tag
T2 sequence (O35409 45-752): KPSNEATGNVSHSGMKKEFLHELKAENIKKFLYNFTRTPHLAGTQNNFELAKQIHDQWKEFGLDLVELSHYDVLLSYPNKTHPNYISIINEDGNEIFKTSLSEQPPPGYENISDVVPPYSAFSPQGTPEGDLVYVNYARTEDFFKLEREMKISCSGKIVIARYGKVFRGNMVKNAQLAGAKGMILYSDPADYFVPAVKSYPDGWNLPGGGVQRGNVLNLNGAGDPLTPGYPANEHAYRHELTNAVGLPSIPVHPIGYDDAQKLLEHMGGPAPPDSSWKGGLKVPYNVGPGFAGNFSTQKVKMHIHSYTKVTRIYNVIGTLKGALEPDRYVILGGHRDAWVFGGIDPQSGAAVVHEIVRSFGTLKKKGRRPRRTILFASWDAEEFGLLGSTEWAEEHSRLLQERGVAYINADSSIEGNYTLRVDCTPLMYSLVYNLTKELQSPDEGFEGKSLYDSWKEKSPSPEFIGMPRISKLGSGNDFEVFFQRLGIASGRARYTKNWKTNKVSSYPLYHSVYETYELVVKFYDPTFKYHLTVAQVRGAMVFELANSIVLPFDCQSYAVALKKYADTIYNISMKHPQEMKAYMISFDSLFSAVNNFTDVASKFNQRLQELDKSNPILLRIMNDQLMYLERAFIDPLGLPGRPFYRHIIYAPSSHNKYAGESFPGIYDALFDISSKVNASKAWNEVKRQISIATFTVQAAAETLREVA
Description: SPR (Biacore T200), antibody captured on Protein A chip, antigen flowed over. A general note: In SPR one partner is held on a chip, and binding of the other changes the refractive index at the surface.

For experiment [7], the target named is T3, monkey PSMA-His (ACRO, PSA-C5247) (monkey (cynomolgus), UniProt A0A2K5VNZ0 44-750).
T3 construct: Commercial protein; also called cynomolgus monkey PSMA; not shown: His tag
The experiment in a line: SPR (Biacore T200), antibody captured on Protein A chip, antigen flowed over, 1:1 model.

Experiment [8] addresses T4, human PSMA-His (ACRO, PSA-H52H3) (human, UniProt Q04609 44-750).
T4 construct: Commercial protein; not shown: His tag
Described as above.

Experiment [9] addresses T1, human PSMA (prostate specific membrane …). The experiment in a line: cell-based or functional assay. This is another data set of the same source.

T4 sequence (Q04609 44-750 limits assumed): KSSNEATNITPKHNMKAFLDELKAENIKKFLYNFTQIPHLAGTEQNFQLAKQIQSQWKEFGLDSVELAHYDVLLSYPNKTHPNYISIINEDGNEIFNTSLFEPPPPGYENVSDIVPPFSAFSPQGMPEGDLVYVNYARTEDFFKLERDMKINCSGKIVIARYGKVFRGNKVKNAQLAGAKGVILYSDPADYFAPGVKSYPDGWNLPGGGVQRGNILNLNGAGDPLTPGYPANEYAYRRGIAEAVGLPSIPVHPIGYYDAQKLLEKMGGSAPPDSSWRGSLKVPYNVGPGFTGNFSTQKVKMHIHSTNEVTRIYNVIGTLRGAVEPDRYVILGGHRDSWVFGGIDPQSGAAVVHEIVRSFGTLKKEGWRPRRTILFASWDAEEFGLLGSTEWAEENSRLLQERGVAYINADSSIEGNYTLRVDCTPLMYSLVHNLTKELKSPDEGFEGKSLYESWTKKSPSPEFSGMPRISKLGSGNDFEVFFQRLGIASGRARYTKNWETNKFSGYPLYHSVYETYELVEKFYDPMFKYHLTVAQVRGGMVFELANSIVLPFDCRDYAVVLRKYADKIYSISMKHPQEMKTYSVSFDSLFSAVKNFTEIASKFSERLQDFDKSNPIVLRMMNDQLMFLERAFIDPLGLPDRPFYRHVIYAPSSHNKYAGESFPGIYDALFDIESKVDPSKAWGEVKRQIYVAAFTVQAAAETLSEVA
T1 sequence (Q04609 whole entry): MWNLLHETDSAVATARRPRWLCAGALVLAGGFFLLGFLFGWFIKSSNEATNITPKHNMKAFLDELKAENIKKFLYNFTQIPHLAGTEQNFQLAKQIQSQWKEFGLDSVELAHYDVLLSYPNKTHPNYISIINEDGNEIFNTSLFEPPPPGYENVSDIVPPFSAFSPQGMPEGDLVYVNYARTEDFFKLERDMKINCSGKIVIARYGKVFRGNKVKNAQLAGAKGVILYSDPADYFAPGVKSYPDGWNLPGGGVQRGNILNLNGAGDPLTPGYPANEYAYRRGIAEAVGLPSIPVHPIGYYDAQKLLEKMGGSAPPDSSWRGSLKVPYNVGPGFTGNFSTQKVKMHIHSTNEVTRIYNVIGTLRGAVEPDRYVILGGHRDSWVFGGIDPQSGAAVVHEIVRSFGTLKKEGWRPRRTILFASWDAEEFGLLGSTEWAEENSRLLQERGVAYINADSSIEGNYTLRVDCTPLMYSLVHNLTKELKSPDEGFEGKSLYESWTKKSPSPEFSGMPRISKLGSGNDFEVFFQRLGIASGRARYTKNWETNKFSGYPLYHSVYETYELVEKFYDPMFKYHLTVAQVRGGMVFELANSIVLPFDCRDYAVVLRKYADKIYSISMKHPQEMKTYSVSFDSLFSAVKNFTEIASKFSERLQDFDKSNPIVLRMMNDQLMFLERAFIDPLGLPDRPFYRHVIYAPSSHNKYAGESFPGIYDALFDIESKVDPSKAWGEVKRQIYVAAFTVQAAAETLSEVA

B1: H-AB-P1 (AB-PG1-XG1-006) (antibody, V domains shown)
VH: QVQLVESGGGVVQPGRSLRLSCAASGFAFSRYGMHWVRQAPGKGLEWVAVIWYDGSNKYYADSVKGRFTISRDNSKNTQYLQMNSLRAEDTAVYYCARGGDFLYYYYYGMDVWGQGTTVTVSS
VL: DIQMTQSPSSLSASVGDRVTITCRASQGISNYLAWYQQKTGKVPKFLIYEASTLQSGVPSRFSGGGSGTDFTLTISSLQPEDVATYYCQNYNSAPFTFGPGTKVDIK
For the molecule B1, in experiment [1], the “DT3C endocytosis assay on LNCaP cells, IC50” value is 2.71 nM.

B2: P19 (19L2H2) (antibody, human IgG1, kappa, V domains shown)
VH: EVKLVESGGGLVQPGGSLRLSCAASGFTFSDYYMAWVRQAPGKGLEWVANINYDGSSTYYLDSLKSRFTISRDNAKNSLYLQMNSLRAEDTAVYYCARGGDYWDAMDYWGQGTTVTVSS
VL: DIQMTQSPSSLSASVGDRVTITCRASQDISKYLNWYQQKPGKAPKLLIYYTSSLHSGVPSRFSGSGSGTDYTLTISSLQPEDFATYYCQQGNRLPRTFGGGTKVEIKR
notes: Humanized anti-PSMA antibody from mouse mAb19-1 (hu19-1 VH2 + hu19-1 VL2), human IgG1 / kappa constant regions; also called antibody P19
Consider B2, for which the EC50 (in general, the concentration giving half of the maximal effect) was determined as 2.09 nM in [2], 0.0719 nM in [3], 0.305 nM in experiment [4] and 0.637 nM in [5]. The “DT3C endocytosis assay on LNCaP cells, IC50” value in experiment [1] was found to be 0.25 nM. In experiment [6], the binding result was “no binding”. Also, the Kd (commonly the equilibrium constant for the complex coming apart) was determined as 5.08 nM in [7] and 1.3 nM in experiment [8]. The off-rate (koff) – broadly, the rate constant with which the complex falls apart – in experiment [8] is 7.92e-05 s⁻¹. In addition, the kon – broadly, the rate constant with which the complex forms – in [8] was found to be 61100 M⁻¹ s⁻¹.

B3: ADC-1 (P19-9-A, n = 5.55) (antibody, human IgG1, kappa, V domains shown)
VH: EVKLVESGGGLVQPGGSLRLSCAASGFTFSDYYMAWVRQAPGKGLEWVANINYDGSSTYYLDSLKSRFTISRDNAKNSLYLQMNSLRAEDTAVYYCARGGDYWDAMDYWGQGTTVTVSS
VL: DIQMTQSPSSLSASVGDRVTITCRASQDISKYLNWYQQKPGKAPKLLIYYTSSLHSGVPSRFSGSGSGTDYTLTISSLQPEDFATYYCQQGNRLPRTFGGGTKVEIKR
modifications: drug-linker 9-A coupled via sulfhydryl groups on cysteine; mean n = 5.55 per antibody (positions not stated)
B3 yielded an EC50 in experiment [3] of 0.114 nM. Besides, the EC50 in [4] came out at 0.442 nM. In experiment [9], the “killing of 22RV1 (+) cells, CellTiter-Glo, IC50” value was 29.5 nM and the “killing of LNCaP (+++) cells, CellTiter-Glo, IC50” value came out at 8.52 nM.

B4: ADC-2 (P19-9-A, n = 7.41) (antibody, human IgG1, kappa, V domains shown)
VH: EVKLVESGGGLVQPGGSLRLSCAASGFTFSDYYMAWVRQAPGKGLEWVANINYDGSSTYYLDSLKSRFTISRDNAKNSLYLQMNSLRAEDTAVYYCARGGDYWDAMDYWGQGTTVTVSS
VL: DIQMTQSPSSLSASVGDRVTITCRASQDISKYLNWYQQKPGKAPKLLIYYTSSLHSGVPSRFSGSGSGTDYTLTISSLQPEDFATYYCQQGNRLPRTFGGGTKVEIKR
modifications: drug-linker 9-A coupled via sulfhydryl groups on cysteine; mean n = 7.41 per antibody (positions not stated)
In [3], B4 came in with a half-maximal effective concentration (EC50) of 0.0812 nM. For the same molecule, the EC50 in [4] was determined as 0.307 nM. Further, in [9], the “killing of 22RV1 (+) cells, CellTiter-Glo, IC50” value was determined as 6.92 nM and the “killing of LNCaP (+++) cells, CellTiter-Glo, IC50” value amounted to 2.83 nM.
